Laboratory results from paper PMC2629585.

Key:
[1] = target: C-reactive protein (CRP), human, purified (Sigma) (human) (UniProt P02741); experiment: SPR; BIAcore 2000; POPC on HPA chip, 200 nM CRP injected and captured, then L-rFBG injected at 30 ul/min; infection-inflammation condition: 50 mM MES, 145 mM NaCl, 2 mM calcium, pH 6.5
[2] = target: C-reactive protein (CRP), human, purified (Sigma) (human) (UniProt P02741); experiment: SPR; BIAcore 2000; POPC on HPA chip, 200 nM CRP injected and captured, then L-rFBG injected at 30 ul/min; normal condition: 50 mM Tris, 145 mM NaCl, 2.5 mM calcium, pH 7.4

Sequence of C-reactive protein (CRP), human, purified (Sigma) (human) (P02741 19-224): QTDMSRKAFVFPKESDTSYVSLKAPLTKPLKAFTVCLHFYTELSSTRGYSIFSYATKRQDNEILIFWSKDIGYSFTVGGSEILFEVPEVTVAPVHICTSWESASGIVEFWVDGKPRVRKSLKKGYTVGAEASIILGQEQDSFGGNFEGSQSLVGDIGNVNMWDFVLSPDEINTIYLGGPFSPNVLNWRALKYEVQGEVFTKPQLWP

- Kd [1]: 12.6 nM
- Kd [2]: 1110 nM
Substance: recombinant FBG domain of L-ficolin (L-rFBG) (domain or fragment)
